{"source": "patent US11859229B2", "about": "“Polyvinyl alcohol-degrading enzyme and process for producing the same” (Hayashibara Co., Ltd., priority 2017, dated 2024)", "molecules": {"B1": {"name": "PVA-B: purified PVA-degrading hybrid enzyme from Pseudomonas sp. VT1B strain, amino acid sequence of SEQ ID NO: 3 (protein, listed as Pseudomonas sp.)", "chain": "AENWPMFGKNYENSRATADTQLSTSNISSLNVVRRTADGGITGTPTVVDGVAYYSDFSGYVKAVRVNDGAVLWRVRPQTTMLSPSPFVTDDTVYVAGNNSYVYALNRLDGAVRWTTQIETSPNSRISSSPIVVDNILMIGTGSYQVFIPATPMFRGRVVFLNATTGAILPYSTNMCPEGLCGGGISVWSTAAVDVSTRTGYIGTGQAYRDPAGPYSDSLVAFDIDTGAIRWSQQFLANDVYQLGGVLRYDYDVGAAPNLFVADERRMVGVGGKDGTYRAFDRDTGAPIWTTPVGRGSPIGGVMQSTAYGDGRIYVTSNTSTIGGGRNDPVPATAEALALDAATGTPVWIRQLDAGGFGGVAYANGLMYASVWDGRMRVFNAANGNIVKEVQVSPSRGVYVAAPTDGFPNGSAGGPIVYGNRVLMGYGWTWVLNISGGLATMELVSGGGETQTVTLASNQDTYVQSGTPTTSYNANEFLLARLADAEGLTRASFLQFPLTAIPAGTITSARLRLYGRHDAPTGTGQPVSVWPGTFTTPWNGADVIYNNSDLVTGVNFYLTSPIANALIGITPQYYEWDVTGYVDSRRALGHATFGVAVDYGHLYRVTFNSADNAANRPELVVAVSTGGTSEPDPELPPGSMEGSCPAGFTPRAGVNQGFIHNGVARGFVLNVPANVSTPRPMFVSLTGSVESTNENLGPRGGAGALTNDGFLVIGPVRRCAGQDPNGSGTSVGGGTCNQPGTGGWNWNPWNEGRAFGAAGDQWKTAEGPDSEFLESVARCVAKRFPVDSKRMYLGGISSGGTLTNRALLFNSDFWAGGLPISGEWYVTRDDGTAYPGPDEFAARRQAVIDDPTKIFQGRVGPLPLRSTLDPMIVITVWGGTNDVWSCDGVTLCADYRPSTQVASNYFSAQPNVVHVACSSSHGHQWPTINRAAFNTWAATTLASHPKGTPASAFVLPPPPAGYTCRIGPYIDHYERACSVDGDGDIDRNDIAVITAARNQPASGPTDLRDVDRSGVIDVNDARACTLRCDRPNCAVQ"}}, "type_in_all_cases": "biochemical", "key": {"[1]": {"assay": "Assay for PVA-oxidizing activity (hydrogen peroxide formation, titanium reagent, A410)", "method": "As shown in the above (1), the PVA-degrading enzyme of the present invention has an PVA-oxidizing activity, i.e., an activity of catalyzing the reaction of oxidizing PVA as substrate and forming hydrogen peroxide. For example, the PVA-oxidizing activity can be measured by the following method.\nTo 0.5 mL of a substrate solution prepared by dissolving PVA (Reagent grade polyvinyl alcohol, polymerization degree: 2,000, Nacalai Tesque Inc., Kyoto, Japan) into 100 mM sodium phosphate buffer (pH 7.0) to give a concentration of 2% (w/v), 15 µL of 2% (w/v) of sodium azide solution was added, and then 0.5 mL of an enzyme solution is further added and reacted with shaking at 27° C. for 60 min. After the 60 min-reaction, the reaction was stopped by mixing 0.32 mL of the reaction mixture to 0.8 mL of a titanium reagent, and the yellow color, produced by reacting hydrogen peroxide formed by the enzyme reaction and the titanium reagent, was measured by measuring the absorbance at 410 nm (A410) as an index. Separately, the enzyme solution was added to the substrate solution, and the resulting mixture is immediately mixed with the titanium reagent. The resulting mixture was similarly measured its color and the value was used as the value at the reaction zero minutes. Then, the amount of the formed hydrogen peroxide is determined and the PVA-oxidizing activity is calculated based on the following formula. It is known that the absorbance at 410 nm (A410) increases by “1” when 3.65 […]mole/mL of hydrogen peroxide is formed. Therefore, in the following Formula 1, the coefficient of “3.65” has been multiplied. One unit of the PVA-oxidizing activity is defined as the amount of enzyme that forms 1 […]mole of hydrogen peroxide per min under the above conditions. Titanium reagent is prepared by diluting 5% titanium sulfate (IV) solution, commercialized by Nacalai Tesque Inc., Kyoto, Japan, 25-fold with 10% (w/w) sulfuric acid."}, "[2]": {"assay": "Detection of β-diketone hydrolyzing activity (acetone from 2,4-pentanedione by gas chromatography)", "set-up": "key: Yes: Acetone, a product by the hydrolysis, was qualitatively detected", "settings": "qualitative", "from_the_text": "As shown in the above (2), the PVA-degrading enzyme of the present invention has an activity of hydrolyzing […]-diketone, i.e., […]-diketone-hydrolyzing activity. Enzymes having β-diketone-hydrolyzing activity can hydrolyze an oxidized PVA having a […]-diketone structure (i.e., oxidized PVA). Beta-diketone-hydrolyzing activity can be detected by examining the activity of hydrolyzing 2, 4-pentanedione which is a model compound of oxidized PVA having a […]-diketone structure. Acetone and acetic acid are formed when a PVA-degrading enzyme hydrolyzes 2,4-pentanedione. Therefore, for example, […]-diketone-hydrolyzing activity can be detected by the following method using 2,4-pentanedione as a substrate.\n2,4-Pentanedione (Reagent grade, commercialized by Wako Pure Chemical Industries Co., Ltd., Osaka, Japan) was added to 50 mM sodium phosphate buffer (pH 7.0) to give a concentration of 0.2% (w/v) to make into a substrate solution. To 1 mL of the substrate solution, 0.2 mL of enzyme solution and 0.8 mL of 50 mM sodium phosphate buffer (pH 7.0) were added and then the mixture was shaken at 27° C. for 3 hours for the reaction. After the reaction, 2 mL of the reaction mixture was withdrawn and put in a glass vial, and then the vial was sealed and heated at 95° C. for 40 min. […]"}, "[3]": {"assay": "PVA-degrading (viscosity-reducing) activity", "settings": "at each purification step", "method": "While, activity as a PVA-degrading enzyme can be measured, for example, by measuring the viscosity reduction of a PVA solution, caused by the degradation of PVA, as an index using the following method.\nTo 0.5 mL of a substrate solution prepared by dissolving PVA (Reagent grade polyvinyl alcohol, polymerization degree: 2,000, Nacalai Tesque Inc., Kyoto, Japan) into 100 mM sodium phosphate buffer (pH 7.0) to give a concentration of 2% (w/v), 15 µL of 2% (w/v) of sodium azide solution was added, and then 0.5 mL of an enzyme solution is further added and reacted with shaking at 27° C. for 60 min. After the reaction, 0.6 mL of the reaction mixture was withdrawn and its viscosity was measured using a Cone plate-type viscometer (“DV-II+Pro”, Brookfield Co., Ltd.) at 30° C. Separately, the enzyme solution was added to the substrate solution and the viscosity was measured immediately, and the viscosity was used as that at zero-min reaction. The PVA-degrading activity was calculated based on the following formula. One unit of the PVA-degrading activity was defined as the amount of enzyme that causes a 10%-reduction of relative viscosity per min under the above conditions. […]"}, "[4]": {"assay": "Optimum temperature and optimum pH of PVA-oxidizing activity", "method": "To 0.5 mL of a substrate solution prepared by dissolving PVA (Reagent grade polyvinyl alcohol, polymerization degree: 2,000, Nacalai Tesque Inc., Kyoto, Japan) into 100 mM sodium phosphate buffer (pH 7.0) to give a concentration of 2% (w/v), 15 µL of 2% (w/v) of sodium azide solution was added, and then 0.5 mL of an enzyme solution is further added and reacted with shaking at 27° C. for 60 min. After the 60 min-reaction, the reaction was stopped by mixing 0.32 mL of the reaction mixture to 0.8 mL of a titanium reagent, and the yellow color, produced by reacting hydrogen peroxide formed by the enzyme reaction and the titanium reagent, was measured by measuring the absorbance at 410 nm (A410) as an index. Separately, the enzyme solution was added to the substrate solution, and the resulting mixture is immediately mixed with the titanium reagent. The resulting mixture was similarly measured its color and the value was used as the value at the reaction zero minutes. Then, the amount of the formed hydrogen peroxide is determined and the PVA-oxidizing activity is calculated based on the following formula. It is known that the absorbance at 410 nm (A410) increases by “1” when 3.65 […]mole/mL of hydrogen peroxide is formed. Therefore, in the following Formula 1, the coefficient of “3.65” has been multiplied. […]"}, "[5]": {"assay": "Thermal stability and pH stability (residual PVA-oxidizing activity)", "method": "To 0.5 mL of a substrate solution prepared by dissolving PVA (Reagent grade polyvinyl alcohol, polymerization degree: 2,000, Nacalai Tesque Inc., Kyoto, Japan) into 100 mM sodium phosphate buffer (pH 7.0) to give a concentration of 2% (w/v), 15 µL of 2% (w/v) of sodium azide solution was added, and then 0.5 mL of an enzyme solution is further added and reacted with shaking at 27° C. for 60 min. After the 60 min-reaction, the reaction was stopped by mixing 0.32 mL of the reaction mixture to 0.8 mL of a titanium reagent, and the yellow color, produced by reacting hydrogen peroxide formed by the enzyme reaction and the titanium reagent, was measured by measuring the absorbance at 410 nm (A410) as an index. Separately, the enzyme solution was added to the substrate solution, and the resulting mixture is immediately mixed with the titanium reagent. The resulting mixture was similarly measured its color and the value was used as the value at the reaction zero minutes. Then, the amount of the formed hydrogen peroxide is determined and the PVA-oxidizing activity is calculated based on the following formula. It is known that the absorbance at 410 nm (A410) increases by “1” when 3.65 […]mole/mL of hydrogen peroxide is formed. […]\nIn the two purified preparations of the PVA-degrading enzyme, PVA-A was used for investigating thermal stability and pH stability using PVA-oxidizing activity as an index according to the assay method. Thermal stability was determined by the steps of incubating the enzyme solution (in 10 mM phosphate buffer, pH 7.0) at various temperature for 60 min, cooling in water, and then measuring the residual enzyme activity. pH Stability was determined by the steps of incubating the enzyme solution in 100 mM buffer with different pH at 4° C. for 24 hours, adjusting pH to 7.0, and then measuring the residual enzyme activity. […] In FIG. 6, symbols, “●”, “▪”, “▴” and “♦”, mean values measured by using acetate buffer, phosphate buffer, glycine-NaOH buffer, and potassium chloride-NaOH buffer, respectively, for pH control."}}, "data": [{"molecule": "B1", "values": [{"measurement": "Specific activity", "setting": "[1]; PVA-oxidizing activity per mg protein at each purification step", "value": 1.9, "unit": "U/mg"}, {"measurement": "Total Activity (PVA-oxidizing activity)", "setting": "[1]; at each purification step, from 4 L culture supernatant", "value": 3.3, "unit": "U"}, {"measurement": "2,4-Pentanedione-Degrading Activity", "setting": "[2]", "value": "Yes*"}, {"measurement": "Total PVA-Degrading Activity (Viscosity-reducing Activity)", "setting": "[3]", "value": 8.4, "unit": "U"}, {"measurement": "Optimum pH of PVA-oxidizing activity", "setting": "[4]; 60 min-reaction at 27° C.", "value": "almost the same"}, {"measurement": "Optimum temperature of PVA-oxidizing activity", "setting": "[4]; 60 min-reaction at pH 7.0", "value": "almost the same"}, {"measurement": "Thermal stability of PVA-oxidizing activity", "setting": "[5]; 10 mM phosphate buffer, pH 7.0, 60 min", "value": "almost the same"}, {"measurement": "pH stability of PVA-oxidizing activity", "setting": "[5]; 100 mM buffer, 4° C. for 24 hours", "value": "almost the same"}]}]}
